The text below walks through data of paper PMC6532428 (Circulation, 2019).

For this test, the target named is His-p65 fusion protein (UniProt Q04206 1-551). The test can be described thus: pull-down.
His-p65 fusion protein, sequence (Q04206 whole entry, the tested form may be a part): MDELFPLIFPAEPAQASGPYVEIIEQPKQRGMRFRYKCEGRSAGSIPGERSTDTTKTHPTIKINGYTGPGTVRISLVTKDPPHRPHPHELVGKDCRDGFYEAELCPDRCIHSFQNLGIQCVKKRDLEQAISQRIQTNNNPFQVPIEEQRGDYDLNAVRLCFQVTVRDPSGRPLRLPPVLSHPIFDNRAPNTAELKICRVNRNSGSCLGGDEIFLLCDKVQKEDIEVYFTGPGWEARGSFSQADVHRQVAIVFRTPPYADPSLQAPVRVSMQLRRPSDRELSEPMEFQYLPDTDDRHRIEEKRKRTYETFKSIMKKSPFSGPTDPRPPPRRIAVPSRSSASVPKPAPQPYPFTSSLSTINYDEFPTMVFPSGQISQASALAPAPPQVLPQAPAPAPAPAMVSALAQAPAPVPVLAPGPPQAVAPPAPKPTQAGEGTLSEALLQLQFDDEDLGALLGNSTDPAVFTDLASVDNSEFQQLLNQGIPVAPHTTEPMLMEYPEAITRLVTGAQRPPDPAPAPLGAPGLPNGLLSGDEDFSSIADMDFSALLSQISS

B1: GST-RhoE recombinant protein (natural protein, UniProt P61587 1-244, looked up)
chain: MKERRASQKLSSKSIMDPNQNVKCKIVVVGDSQCGKTALLHVFAKDCFPENYVPTVFENYTASFEIDTQRIELSLWDTSGSPYYDNVRPLSYPDSDAVLICFDISRPETLDSVLKKWKGEIQEFCPNTKMLLVGCKSDLRTDVSTLVELSNHRQTPVSYDQGANMAKQIGAATYIECSALQSENSVRDIFHVATLACVNKTNKNVKRNKSQRATKRISHMPSRPELSAVATDLRKDKAKSCTVM
Consider B1, for which the binding result was “binds”.
